In article PMC5358978, “Nuclear export receptor CRM1 recognizes diverse conformations in nuclear export signals” (eLife, 2017):

Target: human CRM1 (HsCRM1), wild type (human) (UniProt O14980)
Test: differential bleaching; competition titration of MBP-NES to FITC-PKI NES and CRM1 with excess RanGTP; triplicate; fitted with a set of direct titrations

Sequence of human CRM1 (HsCRM1), wild type (human) (O14980 whole entry): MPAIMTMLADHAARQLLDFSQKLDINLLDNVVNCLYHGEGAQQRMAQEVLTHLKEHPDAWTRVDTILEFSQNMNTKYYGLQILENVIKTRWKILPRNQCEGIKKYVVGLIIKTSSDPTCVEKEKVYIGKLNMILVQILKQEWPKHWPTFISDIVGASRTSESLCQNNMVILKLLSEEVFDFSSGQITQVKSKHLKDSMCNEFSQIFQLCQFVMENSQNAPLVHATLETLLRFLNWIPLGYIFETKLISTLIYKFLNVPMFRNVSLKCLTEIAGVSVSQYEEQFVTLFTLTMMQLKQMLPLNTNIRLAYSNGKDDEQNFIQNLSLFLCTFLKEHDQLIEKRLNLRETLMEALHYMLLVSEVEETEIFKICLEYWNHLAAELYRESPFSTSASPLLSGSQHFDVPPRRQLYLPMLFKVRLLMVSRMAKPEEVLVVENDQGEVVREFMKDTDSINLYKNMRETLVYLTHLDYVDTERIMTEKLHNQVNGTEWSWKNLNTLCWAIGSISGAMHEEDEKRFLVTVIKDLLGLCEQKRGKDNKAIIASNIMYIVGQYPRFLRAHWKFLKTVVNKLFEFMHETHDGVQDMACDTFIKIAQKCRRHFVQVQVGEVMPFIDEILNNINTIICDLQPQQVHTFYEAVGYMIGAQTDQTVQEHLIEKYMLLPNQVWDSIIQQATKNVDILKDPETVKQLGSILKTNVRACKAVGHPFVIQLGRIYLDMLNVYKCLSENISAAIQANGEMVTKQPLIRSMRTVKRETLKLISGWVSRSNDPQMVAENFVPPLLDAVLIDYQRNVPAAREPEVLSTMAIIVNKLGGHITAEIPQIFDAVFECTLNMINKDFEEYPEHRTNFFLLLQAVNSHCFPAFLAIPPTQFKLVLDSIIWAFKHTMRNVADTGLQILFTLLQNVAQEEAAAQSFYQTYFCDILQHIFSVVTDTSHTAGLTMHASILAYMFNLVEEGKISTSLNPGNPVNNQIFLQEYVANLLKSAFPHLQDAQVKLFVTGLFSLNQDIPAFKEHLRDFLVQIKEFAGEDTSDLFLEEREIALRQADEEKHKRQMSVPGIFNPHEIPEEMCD

Substance: MBP-mDia2 NES(Φ0A) mutant (peptide)
- Kd: 9.1 µM
